Fewer inactive variants are shown than the library holds.

Results on 25 sequences are retold here after the supplement of paper PMC9233669.

The test system of one data set is biotinyl-Phe-oxazolone. Nature of the data set: self-aminoacylation, catalytic enhancement (BFO) (fold over background); higher = more active; k-Seq, kA / k0A0; sequences stand for … in GGGAAUGGAUCCACAUCUACGAAUUC…UUCACUGCAGACUUGACGAAGCUG
The essentials:
(§1)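 Mutagenized RNA pools with a 21-nt variable region (0.43 μM) reacted with each biotinyl-aminoacyl-oxazolone at 2–1250 μM. Reactions ran in 50 μL HEPES/NaCl/KCl/MgCl2/CaCl2 buffer with 5% acetonitrile, pH 6.9–7.0, for 90 minutes at room temperature. Streptavidin-captured RNA was quantified by triplicate qPCR and Illumina sequencing, and per-sequence fraction reacted was fit to a pseudo-first-order model with 1000 bootstraps. Catalytic enhancement is median kA divided by the uncatalyzed rate, the low-activity peak of a bimodal Gaussian fit.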

The subject of a further data set is biotinyl-Val-oxazolone. Nature of the data set: self-aminoacylation, catalytic enhancement (BVO) (fold over background); higher = more active; k-Seq, kA / k0A0; sequences stand for … in GGGAAUGGAUCCACAUCUACGAAUUC…UUCACUGCAGACUUGACGAAGCUG
Summed up: as §1

For a further data set, the system named is biotinyl-Trp-oxazolone. The data set can be described thus: self-aminoacylation, catalytic enhancement (BWO) (fold over background); higher = more active; k-Seq, kA / k0A0; sequences stand for … in GGGAAUGGAUCCACAUCUACGAAUUC…UUCACUGCAGACUUGACGAAGCUG
Summed up: as §1

For a further data set, the system named is biotinyl-Leu-oxazolone. The data set can be described thus: self-aminoacylation, catalytic enhancement (BLO) (fold over background); higher = more active; k-Seq, kA / k0A0; sequences stand for … in GGGAAUGGAUCCACAUCUACGAAUUC…UUCACUGCAGACUUGACGAAGCUG
Summed up: as §1

A further data set deals with biotinyl-Met-oxazolone. Nature of the data set: self-aminoacylation, catalytic enhancement (BMO) (fold over background); higher = more active; k-Seq, kA / k0A0; sequences stand for … in GGGAAUGGAUCCACAUCUACGAAUUC…UUCACUGCAGACUUGACGAAGCUG
The essentials: as §1

Another data set concerns biotinyl-Ile-oxazolone. The data set can be described thus: self-aminoacylation, catalytic enhancement (BIO) (fold over background); higher = more active; k-Seq, kA / k0A0; sequences stand for … in GGGAAUGGAUCCACAUCUACGAAUUC…UUCACUGCAGACUUGACGAAGCUG
The essentials: as §1

Consider “AUUCACCUAGGUAAUCGGGUC [Fam2.2 aminoacylation ribozyme variant]”, for which the self-aminoacylation stood at 0.508 in the data set with biotinyl-Phe-oxazolone; 0.689 with biotinyl-Val-oxazolone; 0.691 with biotinyl-Trp-oxazolone; 0.754 in the data set with biotinyl-Leu-oxazolone; 0.606 in the data set on biotinyl-Met-oxazolone; 0.866 with biotinyl-Ile-oxazolone.

On to “AUUCACCUAGGUACUCGGGUG [Fam2.2 aminoacylation ribozyme variant]”, for which the self-aminoacylation with biotinyl-Phe-oxazolone was determined as 29.8; in the data set with biotinyl-Val-oxazolone, 2.11; in the data set with biotinyl-Trp-oxazolone, 2.78; with biotinyl-Leu-oxazolone, 3.3; with biotinyl-Met-oxazolone, 2.47; with biotinyl-Ile-oxazolone, 2.15.

With “AUUCACCUAGGUCAACAGGUG [Fam2.2 aminoacylation ribozyme variant]”, the self-aminoacylation worked out at 5.63 in the data set with biotinyl-Phe-oxazolone; 1.56 in the data set on biotinyl-Val-oxazolone; 1.87 with biotinyl-Trp-oxazolone; 2.8 with biotinyl-Leu-oxazolone; 2.2 in the data set on biotinyl-Met-oxazolone; 1.64 with biotinyl-Ile-oxazolone.

Turning to “AUUCACCUAGGUCACCCGGUG [Fam2.2 aminoacylation ribozyme variant]”, the self-aminoacylation with biotinyl-Phe-oxazolone was 37.3; in the data set on biotinyl-Val-oxazolone, 7.55; in the data set with biotinyl-Trp-oxazolone, 5.82; with biotinyl-Leu-oxazolone it was 9.93; in the data set on biotinyl-Met-oxazolone, 7.32; in the data set on biotinyl-Ile-oxazolone, 9.3.

With “AUUCACCUAGGUCACCGAGUG [Fam2.2 aminoacylation ribozyme variant]”, the self-aminoacylation turned out to be 14.4 in the data set on biotinyl-Phe-oxazolone; 1.99 in the data set on biotinyl-Val-oxazolone; 3.47 in the data set with biotinyl-Trp-oxazolone; 4.03 in the data set on biotinyl-Leu-oxazolone; 3.57 with biotinyl-Met-oxazolone; 2.11 in the data set on biotinyl-Ile-oxazolone.

As to “AUUCACCUAGGUCACCGGGCG [Fam2.2 aminoacylation ribozyme variant]”, the self-aminoacylation in the data set on biotinyl-Phe-oxazolone turned out to be 11.3; in the data set with biotinyl-Val-oxazolone it was 4.43; in the data set with biotinyl-Trp-oxazolone, 4.68; in the data set with biotinyl-Leu-oxazolone, 4.7; in the data set on biotinyl-Met-oxazolone, 3.66; in the data set with biotinyl-Ile-oxazolone, 3.96.

With “AUUCACCUAGGUCAGCGGGUG [Fam2.2 aminoacylation ribozyme variant]”, the self-aminoacylation with biotinyl-Phe-oxazolone is 29.1; in the data set with biotinyl-Val-oxazolone, 3.2; in the data set on biotinyl-Trp-oxazolone, 4.21; with biotinyl-Leu-oxazolone, 5.95; in the data set on biotinyl-Met-oxazolone it was 4.39; with biotinyl-Ile-oxazolone it was 3.3.

Consider “AUUCACCUAGGUCAUAAGGUG [Fam2.2 aminoacylation ribozyme variant]”, for which the self-aminoacylation in the data set on biotinyl-Phe-oxazolone worked out at 6.42; with biotinyl-Val-oxazolone it was 1.69; in the data set on biotinyl-Trp-oxazolone, 2.59; with biotinyl-Leu-oxazolone, 3.48; with biotinyl-Met-oxazolone, 3.33; in the data set with biotinyl-Ile-oxazolone, 1.98.

As for “AUUCACCUAGGUCAUAGGGUA [Fam2.2 aminoacylation ribozyme variant]”, the self-aminoacylation came to 0.412 with biotinyl-Phe-oxazolone; 1.16 with biotinyl-Val-oxazolone; 1.67 with biotinyl-Trp-oxazolone; 0.856 in the data set on biotinyl-Leu-oxazolone; 0.923 in the data set on biotinyl-Met-oxazolone; 1.21 with biotinyl-Ile-oxazolone.

With “AUUCACCUAGGUCAUCAGAUG [Fam2.2 aminoacylation ribozyme variant]”, the self-aminoacylation with biotinyl-Phe-oxazolone was found to be 0.715; in the data set with biotinyl-Val-oxazolone, 0.872; in the data set with biotinyl-Trp-oxazolone, 0.522; with biotinyl-Leu-oxazolone, 0.928; with biotinyl-Met-oxazolone, 0.656; in the data set on biotinyl-Ile-oxazolone it was 0.857.

In the case of “AUUCACCUAGGUCAUCCGGUA [Fam2.2 aminoacylation ribozyme variant]”, the self-aminoacylation stood at 6.52 in the data set with biotinyl-Phe-oxazolone; 2.3 in the data set with biotinyl-Val-oxazolone; 1.87 in the data set on biotinyl-Trp-oxazolone; 2.3 in the data set with biotinyl-Leu-oxazolone; 2.17 with biotinyl-Met-oxazolone; 2.36 in the data set on biotinyl-Ile-oxazolone.

For the sequence “AUUCACCUAGGUCAUCGCGUU [Fam2.2 aminoacylation ribozyme variant]”, the self-aminoacylation came to 12.7 with biotinyl-Phe-oxazolone; 2.39 with biotinyl-Val-oxazolone; 3.66 in the data set with biotinyl-Trp-oxazolone; 3 with biotinyl-Leu-oxazolone; 2.62 in the data set on biotinyl-Met-oxazolone; 2.48 with biotinyl-Ile-oxazolone.

In the case of “AUUCACCUAGGUCAUCGCUUG [Fam2.2 aminoacylation ribozyme variant]”, the self-aminoacylation in the data set with biotinyl-Phe-oxazolone worked out at 4.33; in the data set with biotinyl-Val-oxazolone, 1.12; with biotinyl-Trp-oxazolone it was 0.795; with biotinyl-Leu-oxazolone, 1.26; in the data set with biotinyl-Met-oxazolone it was 1.32; in the data set on biotinyl-Ile-oxazolone, 1.18.

For the sequence “AUUCACCUAGGUCAUCGGGCC [Fam2.2 aminoacylation ribozyme variant]”, the self-aminoacylation in the data set with biotinyl-Phe-oxazolone is 14.7; with biotinyl-Val-oxazolone it was 2.97; in the data set on biotinyl-Trp-oxazolone, 4.4; in the data set on biotinyl-Leu-oxazolone, 4.1; in the data set with biotinyl-Met-oxazolone, 3.51; in the data set on biotinyl-Ile-oxazolone, 2.73.

Consider “AUUCACCUAGGUCAUCGGGGC [Fam2.2 aminoacylation ribozyme variant]”, for which the self-aminoacylation was found to be 20.7 in the data set with biotinyl-Phe-oxazolone; 4.81 in the data set on biotinyl-Val-oxazolone; 5.91 with biotinyl-Trp-oxazolone; 11.5 in the data set with biotinyl-Leu-oxazolone; 7.18 in the data set on biotinyl-Met-oxazolone; 4.85 with biotinyl-Ile-oxazolone.

“AUUCACCUAGGUCAUCGGUAG [Fam2.2 aminoacylation ribozyme variant]”: the self-aminoacylation worked out at 0.533 in the data set on biotinyl-Phe-oxazolone; 0.836 in the data set on biotinyl-Val-oxazolone; 0.372 in the data set on biotinyl-Trp-oxazolone; 0.606 in the data set on biotinyl-Leu-oxazolone; 0.838 with biotinyl-Met-oxazolone; 0.626 with biotinyl-Ile-oxazolone.

“AUUCACCUAGGUCAUCGGUUG [Fam2.2 aminoacylation ribozyme variant]”: the self-aminoacylation came to 1.02 in the data set on biotinyl-Phe-oxazolone; 1.03 in the data set on biotinyl-Val-oxazolone; 0.932 in the data set on biotinyl-Trp-oxazolone; 1.11 in the data set on biotinyl-Leu-oxazolone; 1.01 in the data set on biotinyl-Met-oxazolone; 1 in the data set with biotinyl-Ile-oxazolone.

Regarding “AUUCACCUAGGUCAUCUAGUG [Fam2.2 aminoacylation ribozyme variant]”, the self-aminoacylation with biotinyl-Phe-oxazolone came out at 18.7; in the data set with biotinyl-Val-oxazolone it was 2.78; in the data set on biotinyl-Trp-oxazolone, 4.12; with biotinyl-Leu-oxazolone, 5.99; in the data set with biotinyl-Met-oxazolone it was 4.77; in the data set with biotinyl-Ile-oxazolone, 2.92.

In the case of “AUUCACCUAGGUCAUGGAGUG [Fam2.2 aminoacylation ribozyme variant]”, the self-aminoacylation in the data set with biotinyl-Phe-oxazolone was 7.91; in the data set with biotinyl-Val-oxazolone, 2.49; in the data set with biotinyl-Trp-oxazolone, 3.68; with biotinyl-Leu-oxazolone it was 4.09; with biotinyl-Met-oxazolone it was 3.29; in the data set on biotinyl-Ile-oxazolone, 2.31.

Turning to “AUUCACCUAGGUCAUGGGAUG [Fam2.2 aminoacylation ribozyme variant]”, the self-aminoacylation was 0.397 with biotinyl-Phe-oxazolone; 0.657 with biotinyl-Val-oxazolone; 0.315 in the data set with biotinyl-Trp-oxazolone; 0.611 in the data set on biotinyl-Leu-oxazolone; 0.66 with biotinyl-Met-oxazolone; 0.596 in the data set on biotinyl-Ile-oxazolone.

In the case of “AUUCACCUAGGUCAUGGUGUG [Fam2.2 aminoacylation ribozyme variant]”, the self-aminoacylation was 0.397 in the data set with biotinyl-Phe-oxazolone; 0.932 in the data set with biotinyl-Val-oxazolone; 0.519 in the data set with biotinyl-Trp-oxazolone; 0.994 in the data set on biotinyl-Leu-oxazolone; 0.846 in the data set with biotinyl-Met-oxazolone; 0.936 with biotinyl-Ile-oxazolone.

Regarding “AUUCACCUAGGUCAUGUGGUG [Fam2.2 aminoacylation ribozyme variant]”, the self-aminoacylation in the data set with biotinyl-Phe-oxazolone is 20; with biotinyl-Val-oxazolone, 2.1; in the data set with biotinyl-Trp-oxazolone, 2.98; in the data set on biotinyl-Leu-oxazolone, 3.91; in the data set on biotinyl-Met-oxazolone it was 2.95; in the data set with biotinyl-Ile-oxazolone it was 2.18.

On to “AUUCACCUAGGUCAUUGGGAG [Fam2.2 aminoacylation ribozyme variant]”, for which the self-aminoacylation in the data set with biotinyl-Phe-oxazolone was 0.946; with biotinyl-Val-oxazolone, 0.991; with biotinyl-Trp-oxazolone, 1.16; in the data set with biotinyl-Leu-oxazolone, 1.07; with biotinyl-Met-oxazolone it was 1.05; with biotinyl-Ile-oxazolone it was 1.15.

For “AUUCACCUAGGUCCACGGGUG [Fam2.2 aminoacylation ribozyme variant]”, the self-aminoacylation with biotinyl-Phe-oxazolone stood at 48.5; in the data set with biotinyl-Val-oxazolone, 4.27; in the data set with biotinyl-Trp-oxazolone, 6.34; in the data set with biotinyl-Leu-oxazolone it was 9.94; in the data set on biotinyl-Met-oxazolone, 7.25; with biotinyl-Ile-oxazolone it was 3.85.

Take “AUUCACCUAGGUCCUCGGAUG [Fam2.2 aminoacylation ribozyme variant]”: the self-aminoacylation with biotinyl-Phe-oxazolone was 0.427; in the data set with biotinyl-Val-oxazolone it was 0.89; in the data set on biotinyl-Trp-oxazolone, 0.587; in the data set on biotinyl-Leu-oxazolone, 1.07; in the data set with biotinyl-Met-oxazolone it was 0.966; with biotinyl-Ile-oxazolone it was 0.964.
